Drawing on US20240360227A1, this text covers Kd, koff and kon for eleven molecules.

For test [1], the target named is Recombinant human his-tagged IGF R extracellular domain protein (human) (UniProt P08069). The experiment in a line: SPR, Ab captured via anti-huIgG Fc, pH 7.4. For orientation: SPR reads the build-up and loss of mass on a sensor chip optically.
For test [2] the target is unchanged. The experiment in a line: SPR, Ab captured via anti-huIgG Fc, dissociation at pH 6.

B1: VRDN-02072 (antibody, V domains shown)
VH: QVQLQESGPGLVKPSETLSLTCTVSGYSITGGYLWNWIRQPPGKGLEWIGYIHYDGTNNYKPSLKDRVTISRDTSKNQFSLKLSSVTAADTAVYYCARHGRVFFDYWGQGTLVTVSS
VL: DIVMTQSPLSLPVTPGEPASISCRSHQSIVHSNGNTYLQWYLQKPGQSPQLLIYKVSNRLYGVPDRFSGSGSGTDFTLKISRVEAEDVGVYYCFQGSHVHWTFGQGTKVEIK
On to B1, for which, in test [1], the Kd is 0.281 nM, the koff stood at 3.57e-05 s⁻¹ and the kon worked out at 127000 M⁻¹ s⁻¹. In test [2], the Kd turned out to be 0.269 nM, the koff was found to be 5.3e-05 s⁻¹ and the kon turned out to be 197000 M⁻¹ s⁻¹.

B2: VRDN-02011 (antibody, V domains shown)
VH: QVQLQESGPGLVKPSETLSLTCTVSGYSITGGYLWHWIRQPPGKGLEWIGYISYDGTNNYKPSLKDRVTISRDTSKNQFSLKLSSVTAADTAVYYCARYGRVFFDYWGQGTLVTVSS
VL: DIVMTQSPLSLPVTPGEPASISCRSSQSIVHSNGNTYLQWYLQKPGQSPQLLIYKVSNRLYGVPDRFSGSGSGTDFTLKISRVEAEDVGVYYCFQGSHVPWTFGQGTKVEIK
On to B2, for which, in test [1], the equilibrium dissociation constant (Kd) stood at 0.432 nM, the koff amounted to 4.55e-05 s⁻¹ and the kon was found to be 105000 M⁻¹ s⁻¹. Also, in test [2], the Kd worked out at 0.836 nM, the dissociation rate constant (koff) came to 7.81e-05 s⁻¹ and the kon is 93400 M⁻¹ s⁻¹.

B3: VRDN-02074 (antibody, V domains shown)
VH: QVQLQESGPGLVKPSETLSLTCTVSGYSITGGYLWNWIRQPPGKGLEWIGYISYHGTNNYKPSLKDRVTISRDTSKNQFSLKLSSVTAADTAVYYCARHGRVFFDYWGQGTLVTVSS
VL: DIVMTQSPLSLPVTPGEPASISCRSHQSIVHSNGNTYLQWYLQKPGQSPQLLIYKVSNRLYGVPDRFSGSGSGTDFTLKISRVEAEDVGVYYCFHGSHVPWTFGQGTKVEIK
As for B3, in test [1], the Kd is 0.301 nM, the dissociation rate constant (koff) came to 3.98e-05 s⁻¹ and the kon was 132000 M⁻¹ s⁻¹. Also, in test [2], the Kd was determined as 0.25 nM, the koff is 5.81e-05 s⁻¹ and the kon was 232000 M⁻¹ s⁻¹.

B4: VRDN-02009 (antibody, V domains shown)
VH: QVQLQESGPGLVKPSETLSLTCTVSGYSITGGYHWNWIRQPPGKGLEWIGYISYDGTNNYKPSLKDRVTISRDTSKNQFSLKLSSVTAADTAVYYCARYGRVFFDYWGQGTLVTVSS
VL: DIVMTQSPLSLPVTPGEPASISCRSSQSIVHSNGNTYLQWYLQKPGQSPQLLIYKVSNRLYGVPDRFSGSGSGTDFTLKISRVEAEDVGVYYCFQGSHVPWTFGQGTKVEIK
Consider B4, for which, in test [1], the dissociation constant Kd was determined as 0.442 nM, the koff came to 3.98e-05 s⁻¹ and the kon came to 90000 M⁻¹ s⁻¹. Moreover, in test [2], the equilibrium dissociation constant (Kd) is 0.967 nM, the koff turned out to be 8.4e-05 s⁻¹ and the kon is 86900 M⁻¹ s⁻¹.

B5: VRDN-02076 (antibody, V domains shown)
VH: QVQLQESGPGLVKPSETLSLTCTVSGYSITGGYLWNWIRQPPGKGLEWIGYISYHGTNNYKPSLKDRVTISRDTSKNQFSLKLSSVTAADTAVYYCARHGRVFFDYWGQGTLVTVSS
VL: DIVMTQSPLSLPVTPGEPASISCRSHQSIVHSNGNTYLQWYLQKPGQSPQLLIYKVSNRLYGVPDRFSGSGSGTDFTLKISRVEAEDVGVYYCFQGSHVPHTFGQGTKVEIK
As to B5, in test [1], the Kd stood at 0.21 nM, the koff is 2.46e-05 s⁻¹ and the kon is 117000 M⁻¹ s⁻¹. Besides, in test [2], the Kd is 0.178 nM, the koff is 6.76e-05 s⁻¹ and the kon is 381000 M⁻¹ s⁻¹.

B6: VRDN-02073 (antibody, V domains shown)
VH: QVQLQESGPGLVKPSETLSLTCTVSGYSITGGYLWNWIRQPPGKGLEWIGYIHYDGTNNYKPSLKDRVTISRDTSKNQFSLKLSSVTAADTAVYYCARHGRVFFDYWGQGTLVTVSS
VL: DIVMTQSPLSLPVTPGEPASISCRSHQSIVHSNGNTYLQWYLQKPGQSPQLLIYKVSNRLYGVPDRFSGSGSGTDFTLKISRVEAEDVGVYYCFQGSHVPHTFGQGTKVEIK
Regarding B6, in test [1], the Kd is 0.261 nM, the koff is 3.13e-05 s⁻¹ and the kon was 120000 M⁻¹ s⁻¹. In test [2], the Kd was 0.267 nM, the koff came out at 4.77e-05 s⁻¹ and the kon is 179000 M⁻¹ s⁻¹.

B7: VRDN-02008 (antibody, V domains shown)
VH: QVQLQESGPGLVKPSETLSLTCTVSGYSITGGHLWNWIRQPPGKGLEWIGYISYDGTNNYKPSLKDRVTISRDTSKNQFSLKLSSVTAADTAVYYCARYGRVFFDYWGQGTLVTVSS
VL: DIVMTQSPLSLPVTPGEPASISCRSSQSIVHSNGNTYLQWYLQKPGQSPQLLIYKVSNRLYGVPDRFSGSGSGTDFTLKISRVEAEDVGVYYCFQGSHVPWTFGQGTKVEIK
Consider B7, for which, in test [1], the dissociation constant (Kd) stood at 16.6 nM, the dissociation rate constant (koff) was 0.0206 s⁻¹ and the kon is 1.24e+06 M⁻¹ s⁻¹. For the same molecule, in test [2], the Kd was 13.1 nM, the koff worked out at 0.00143 s⁻¹ and the kon stood at 109000 M⁻¹ s⁻¹.

B8: VRDN-02012 (antibody, V domains shown)
VH: QVQLQESGPGLVKPSETLSLTCTVSGYSITGGYLWNWIRQPPGKGLEWIGHISYDGTNNYKPSLKDRVTISRDTSKNQFSLKLSSVTAADTAVYYCARYGRVFFDYWGQGTLVTVSS
VL: DIVMTQSPLSLPVTPGEPASISCRSSQSIVHSNGNTYLQWYLQKPGQSPQLLIYKVSNRLYGVPDRFSGSGSGTDFTLKISRVEAEDVGVYYCFQGSHVPWTFGQGTKVEIK
As to B8, in test [1], the Kd is 0.589 nM, the koff was determined as 5.41e-05 s⁻¹ and the kon was 91800 M⁻¹ s⁻¹. Further, in test [2], the Kd is 1.01 nM, the koff was 0.000103 s⁻¹ and the kon is 102000 M⁻¹ s⁻¹.

B9: VRDN-02010 (antibody, V domains shown)
VH: QVQLQESGPGLVKPSETLSLTCTVSGYSITGGYLHNWIRQPPGKGLEWIGYISYDGTNNYKPSLKDRVTISRDTSKNQFSLKLSSVTAADTAVYYCARYGRVFFDYWGQGTLVTVSS
VL: DIVMTQSPLSLPVTPGEPASISCRSSQSIVHSNGNTYLQWYLQKPGQSPQLLIYKVSNRLYGVPDRFSGSGSGTDFTLKISRVEAEDVGVYYCFQGSHVPWTFGQGTKVEIK
For B9, in test [1], the Kd turned out to be 6.95 nM, the dissociation rate constant (koff) worked out at 0.00311 s⁻¹ and the kon came to 447000 M⁻¹ s⁻¹. Besides, in test [2], the Kd was found to be 7.61 nM, the koff is 0.00074 s⁻¹ and the kon is 97200 M⁻¹ s⁻¹.

B10: VRDN-02007 (antibody, V domains shown)
VH: QVQLQESGPGLVKPSETLSLTCTVSGYSITGHYLWNWIRQPPGKGLEWIGYISYDGTNNYKPSLKDRVTISRDTSKNQFSLKLSSVTAADTAVYYCARYGRVFFDYWGQGTLVTVSS
VL: DIVMTQSPLSLPVTPGEPASISCRSSQSIVHSNGNTYLQWYLQKPGQSPQLLIYKVSNRLYGVPDRFSGSGSGTDFTLKISRVEAEDVGVYYCFQGSHVPWTFGQGTKVEIK
Regarding B10, in test [1], the Kd is 12.8 nM, the off-rate (koff) stood at 0.000743 s⁻¹ and the kon is 58000 M⁻¹ s⁻¹. For the same molecule, in test [2], the Kd worked out at 10.2 nM, the koff worked out at 0.00188 s⁻¹ and the kon is 184000 M⁻¹ s⁻¹.

B11: VRDN-02075 (antibody, V domains shown)
VH: QVQLQESGPGLVKPSETLSLTCTVSGYSITGGYLWNWIRQPPGKGLEWIGYISYHGTNNYKPSLKDRVTISRDTSKNQFSLKLSSVTAADTAVYYCARHGRVFFDYWGQGTLVTVSS
VL: DIVMTQSPLSLPVTPGEPASISCRSHQSIVHSNGNTYLQWYLQKPGQSPQLLIYKVSNRLYGVPDRFSGSGSGTDFTLKISRVEAEDVGVYYCFQGSHVHWTFGQGTKVEIK
As for B11, in test [1], the Kd amounted to 0.237 nM, the koff was determined as 2.76e-05 s⁻¹ and the kon turned out to be 116000 M⁻¹ s⁻¹. In test [2], the Kd was 0.188 nM, the koff amounted to 5.52e-05 s⁻¹ and the kon was found to be 294000 M⁻¹ s⁻¹.

In general, Kd refers to a measure of binding affinity in units of concentration. The term koff denotes a measure of how fast the partners let go of each other. A word on the kon: it is the second-order rate constant of association.
